# Measured values reported in IntAct's records for PubMed 24510189.
# B1: mRNA-decapping enzyme 1A (Homo sapiens), Q9NPI6 (parent)
# chain: MEALSRAGQEMSLAALKQHDPYITSIADLTGQVALYTFCPKANQWEKTDIEGTLFVYRRSASPYHGFTIVNRLNMHNLVEPVNKDLEFQLHEPFLLYRNASLSIYSIWFYDKNDCHRIAKLMADVVEEETRRSQQAARDKQSPSQANGCSDHRPIDILEMLSRAKDEYERNQMGDSNISSPGLQPSTQLSNLGSTETLEEMPSGSQDKSAPSGHKHLTVEELFGTSLPKEQPAVVGLDSEEMERLPGDASQKEPNSFLPFPFEQLGGAPQSETLGVPSAAHHSVQPEITTPVLITPASITQSNEKHAPTYTIPLSPVLSPTLPAEAPTAQVPPSLPRNSTMMQAVKTTPRQRSPLLNQPVPELSHASLIANQSPFRAPLNVTNTAGTSLPSVDLLQKLRLTPQHDQIQTQPLGKGAMVASFSPAAGQLATPESFIEPPSKTAAARVAASASLSNMVLAPLQSMQQNQDPEVFVQPKVLSSAIPVAGAPLVTATTTAVSSVLLAPSVFQQTVTRSSDLERKASSPSPLTIGTPESQRKPSIILSKSQLQDTLIHLIKNDSSFLSTLHEVYLQVLTKNKDNHNL
# partner: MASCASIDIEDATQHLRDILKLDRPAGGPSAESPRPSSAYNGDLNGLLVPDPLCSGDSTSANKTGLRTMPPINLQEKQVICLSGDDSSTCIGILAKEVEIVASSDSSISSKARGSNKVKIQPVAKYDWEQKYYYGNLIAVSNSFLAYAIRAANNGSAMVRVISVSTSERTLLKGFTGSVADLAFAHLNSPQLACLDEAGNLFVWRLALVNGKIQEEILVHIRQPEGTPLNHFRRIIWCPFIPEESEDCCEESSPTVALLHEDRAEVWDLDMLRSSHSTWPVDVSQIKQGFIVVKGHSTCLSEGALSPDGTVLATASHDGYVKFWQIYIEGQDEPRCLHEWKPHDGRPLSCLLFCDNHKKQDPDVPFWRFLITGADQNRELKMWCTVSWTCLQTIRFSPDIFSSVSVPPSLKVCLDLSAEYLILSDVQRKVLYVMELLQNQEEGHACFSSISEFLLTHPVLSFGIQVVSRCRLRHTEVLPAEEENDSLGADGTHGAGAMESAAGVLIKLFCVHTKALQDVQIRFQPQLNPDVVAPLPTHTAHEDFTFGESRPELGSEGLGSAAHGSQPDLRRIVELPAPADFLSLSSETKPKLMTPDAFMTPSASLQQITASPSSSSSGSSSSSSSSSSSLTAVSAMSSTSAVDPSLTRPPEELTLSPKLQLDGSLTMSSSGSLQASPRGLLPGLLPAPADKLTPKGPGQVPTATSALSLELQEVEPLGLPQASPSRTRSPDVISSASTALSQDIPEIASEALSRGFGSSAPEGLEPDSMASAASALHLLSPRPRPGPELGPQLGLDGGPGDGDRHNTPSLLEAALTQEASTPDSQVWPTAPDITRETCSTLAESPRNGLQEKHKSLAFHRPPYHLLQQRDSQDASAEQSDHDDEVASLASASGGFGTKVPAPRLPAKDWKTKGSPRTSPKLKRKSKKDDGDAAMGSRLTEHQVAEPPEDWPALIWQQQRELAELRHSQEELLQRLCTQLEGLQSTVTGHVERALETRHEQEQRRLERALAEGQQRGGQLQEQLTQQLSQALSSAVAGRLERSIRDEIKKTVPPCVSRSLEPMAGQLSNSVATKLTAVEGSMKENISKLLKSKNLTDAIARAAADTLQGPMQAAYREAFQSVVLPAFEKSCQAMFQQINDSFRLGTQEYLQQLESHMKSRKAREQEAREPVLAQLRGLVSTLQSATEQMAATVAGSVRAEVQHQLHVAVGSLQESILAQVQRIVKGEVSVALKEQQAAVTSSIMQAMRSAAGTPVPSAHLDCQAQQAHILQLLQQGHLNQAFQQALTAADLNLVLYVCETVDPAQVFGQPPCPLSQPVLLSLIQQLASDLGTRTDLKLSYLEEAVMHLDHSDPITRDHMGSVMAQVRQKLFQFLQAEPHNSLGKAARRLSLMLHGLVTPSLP
# B2: mRNA-decapping enzyme 1A (Homo sapiens), Q9NPI6 (parent)
# chain: B1 chain
# Variants of: B1
# Settings: with edc4_human EDC4, Q6P2E9
row,Variant,effect of a mutation on the interaction
1,R72G;L73S;N74S;M75G,with no effect
2,R72G,with no effect
3,N74G,with no effect

# Variants of: B2
# Settings: with dcp2_human DCP2, Q8IU60
row,Variant,effect of a mutation on the interaction
1,R72G,with no effect
2,R72G;L73S;N74S;M75G,with no effect
3,N74G,with no effect
4,L554S;F561R;L565S,disrupting interaction strength

# Variants of: B2
# Settings: with pnrc2_human PNRC2, Q9NPJ4
# Chain of pnrc2_human PNRC2, Q9NPJ4 (Q9NPJ4 whole entry): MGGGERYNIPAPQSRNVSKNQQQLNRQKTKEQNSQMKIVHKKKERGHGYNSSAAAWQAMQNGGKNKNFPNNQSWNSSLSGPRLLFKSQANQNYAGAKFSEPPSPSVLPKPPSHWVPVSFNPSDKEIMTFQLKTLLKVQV
row,Variant,effect of a mutation on the interaction
1,R72G;L73S;N74S;M75G,with no effect
2,S12A;Q18A;H19A,with no effect
3,R72G;N74G,with no effect

# Variants of: B2
# Settings: with dcp2_human DCP2, Q8IU60
# Remark: another data set of the same source
row,Variant,effect of a mutation on the interaction
1,L554S;F561R;L565S,disrupting interaction strength
2,S12A;Q18A;H19A,disrupting interaction strength
3,S12A;H19A,decreasing interaction strength
4,Q18A;H19A,decreasing interaction strength
5,H19A,with no effect

# Variants of: B2
# Settings: with dcp2_human DCP2, Q8IU60
# Remark: another data set of the same source
row,Variant,effect of a mutation on the interaction
1,L4E;A14Q,with no effect
